Among the data in patent US5789538 are activity (% phage retention) values, retold here.

The target in this data set is Zif268 finger 1 variant phage pool, CCTG selection round 5 finger 1 positions -1, 2, 3, 6 randomized (four NNS codons), pool (UniProt P08046). The data set is described as follows: SELEX. As to conditions: [none], phage display pool, no enrichment, 0.45 M NaCl washes, 10 uM ZnCl2, 5 mM MgCl2.

Regarding “CTGAGCGTGGCCTGAGTGATCGATC / CACTCAGGCCACGCTCAG [CCTG duplex]”, the activity (% phage retention) is less than 0.001.
